Measured values published in publication PMC8108093 (Cell, 2018).

Biological target: His6-REV7_(R124A), recombinant (human, UniProt Q9UI95 1-211, R124A)
Assay: ITC

Sequence of His6-REV7_(R124A), recombinant (Q9UI95 whole entry R124A): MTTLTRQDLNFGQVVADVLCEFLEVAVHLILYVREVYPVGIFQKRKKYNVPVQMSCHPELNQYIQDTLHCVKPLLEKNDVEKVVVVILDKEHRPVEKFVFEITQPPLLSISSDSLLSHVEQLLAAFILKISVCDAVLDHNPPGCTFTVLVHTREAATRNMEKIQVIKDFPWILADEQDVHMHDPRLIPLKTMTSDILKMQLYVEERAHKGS

- Kd: 15.8 nM
B1: RINN1_(28–83), recombinant (domain or fragment, human, UniProt Q6ZNX1 28-83, looked up)
chain: QDFPTRPLSRFIPWFPYDGSKLPLRPKRSPPVISEEAAEDVKQYLTISEHDAKSHS
